{"source": "paper PMC5818494", "about": "“Specific Recognition of Arginine Methylated Histone Tails by JMJD5 and JMJD7” (Scientific Reports, 2018)", "key": {"c-JMJD5 [1]": {"target": "T1, c-JMJD5 (Homo sapiens, UniProt Q8N371)", "T1 construct": "JMJD5 (residues 183–416, c-JMJD5) lacking the N-terminal domain; made in house", "T1 sequence (Q8N371 183-416)": "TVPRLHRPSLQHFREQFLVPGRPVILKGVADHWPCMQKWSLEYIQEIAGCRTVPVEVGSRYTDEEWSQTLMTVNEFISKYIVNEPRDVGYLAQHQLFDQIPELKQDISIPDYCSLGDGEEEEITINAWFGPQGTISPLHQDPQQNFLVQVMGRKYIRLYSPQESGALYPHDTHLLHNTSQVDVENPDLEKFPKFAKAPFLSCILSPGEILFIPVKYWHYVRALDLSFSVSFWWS", "test": "Biacore surface plasmon resonance binding of c-JMJD5 to immobilised bulk histone or synthetic peptides", "conditions": "C-terminal biotin peptide on SA chip or bulk histone on CM5 chip, c-JMJD5 injected, room temperature", "procedure": "(§1) Data were integrated and scaled using the HKL2000 suite of programs.\n(§2) 10 μg/ml calf bulk histone was dissolved in coating buffer (50 mM sodium acetate [pH 5.0]) and coated onto a CM5 chip (GE Healthcare). […] For peptides, 2 μg/ml synthetic peptide with C-terminal biotin was dissolved in PBS and coated onto a streptavidin coated SA chip (GE Healthcare). […] Similar procedures were carried out for JMJD5. All experiments are carried out at room temperature."}, "JMJD7": {"target": "T2, JMJD7 (Mus musculus, UniProt P0C872)", "T2 construct": "The final model contains residues 1–316; GST (N, cleaved yes); made in house", "T2 sequence (P0C872 whole entry, the tested form may be a part)": "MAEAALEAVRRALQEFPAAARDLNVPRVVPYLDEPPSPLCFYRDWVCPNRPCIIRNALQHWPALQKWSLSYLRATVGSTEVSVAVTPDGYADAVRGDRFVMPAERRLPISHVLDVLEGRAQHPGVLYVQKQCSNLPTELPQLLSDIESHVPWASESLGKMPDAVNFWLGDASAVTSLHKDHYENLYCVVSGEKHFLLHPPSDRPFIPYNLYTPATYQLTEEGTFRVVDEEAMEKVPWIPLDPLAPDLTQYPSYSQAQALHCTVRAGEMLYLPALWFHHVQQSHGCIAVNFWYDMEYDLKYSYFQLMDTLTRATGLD", "test": "Biacore surface plasmon resonance binding of JMJD7 to immobilised bulk histone or synthetic peptides", "conditions": "C-terminal biotin peptide on SA chip or bulk histone on CM5 chip, JMJD7 injected, room temperature", "procedure": "as §1, §2"}, "c-JMJD5 [2]": {"target": "T1, c-JMJD5", "conditions": "fluorescence polarization, c-JMJD5, previous report; read-out: binding affinity; cited from earlier work", "from_the_text": "The binding affinities of various lysine binding domains, such as Chromodomains, PHD fingers, Tudor domains, etc., to lysine residues with and without methylation has been very well established. It is also true that the difference in binding affinity of Tudor domains to arginine with and without methylation is also marginal. The question here is whether c-JMJD5 or JMJD7 has different binding affinity depending on the methylation status of arginine. From the complex structure shown above, c-JMJD5 contains a binding pocket for methylarginine that is similar to those of Tudor domains (Fig ... || Clipping of histone tails, high turnover rates of histone in non-proliferating cells, arginine demethylation, and Pol II elongation control are highly contentious subjects in the transcription and epigenetic fields. Our previous novel discovery of clipping of arginine methylated histone tails by JMJD5 and JMJD7 sheds light on how these topics are intrinsically coupled. Data presented here not only reveal the underlying mechanism of novel enzymatic activities of JMJD5 and JMJD7, but also further corroborate our previous findings. Shortly after the release of our report, Shen et al. also repo ..."}}}
{"substance": "pH3: native form of H3 peptide (1–21)", "values": [{"measurement": "binding in words (SPR sensorgram)", "setting": "c-JMJD5 [1]", "result": "non-specific binding"}, {"measurement": "binding in words (SPR sensorgram)", "setting": "JMJD7", "result": "non-specific binding"}, {"measurement": "Kd", "setting": "c-JMJD5 [2]", "result": "~7", "unit": "µM"}]}
